Results on four molecules are retold here after patent US20190177366A1 (published 2019).

Assay [1] has as its target T1, proprotein convertase subtilisin/kexin type 9 (PCSK9) (human, UniProt Q8NBP7 31-152). Kind of assay: competition.
The target in assay [2] is T1, proprotein convertase subtilisin/kexin …. Kind of assay: phage competition ELISA; competing phage pep2-8. Background: In an ELISA, binding on a coated surface is turned into a signal by an enzyme label.
Assay [3] shares this target. Put plainly: phage competition ELISA; competing phage K9gvpep4.

What is called IC50 is the concentration needed to halve the response being measured.

Bridge positions count the residues as written; N and C are the ends. Ends that are not written are not given here.

T1 sequence (Q8NBP7 31-152, chain 1 of 2): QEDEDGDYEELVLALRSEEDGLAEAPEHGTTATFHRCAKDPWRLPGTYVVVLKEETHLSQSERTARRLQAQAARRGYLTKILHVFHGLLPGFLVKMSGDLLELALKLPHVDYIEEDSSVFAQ
T1 sequence (Q8NBP7 153-692, chain 2 of 2): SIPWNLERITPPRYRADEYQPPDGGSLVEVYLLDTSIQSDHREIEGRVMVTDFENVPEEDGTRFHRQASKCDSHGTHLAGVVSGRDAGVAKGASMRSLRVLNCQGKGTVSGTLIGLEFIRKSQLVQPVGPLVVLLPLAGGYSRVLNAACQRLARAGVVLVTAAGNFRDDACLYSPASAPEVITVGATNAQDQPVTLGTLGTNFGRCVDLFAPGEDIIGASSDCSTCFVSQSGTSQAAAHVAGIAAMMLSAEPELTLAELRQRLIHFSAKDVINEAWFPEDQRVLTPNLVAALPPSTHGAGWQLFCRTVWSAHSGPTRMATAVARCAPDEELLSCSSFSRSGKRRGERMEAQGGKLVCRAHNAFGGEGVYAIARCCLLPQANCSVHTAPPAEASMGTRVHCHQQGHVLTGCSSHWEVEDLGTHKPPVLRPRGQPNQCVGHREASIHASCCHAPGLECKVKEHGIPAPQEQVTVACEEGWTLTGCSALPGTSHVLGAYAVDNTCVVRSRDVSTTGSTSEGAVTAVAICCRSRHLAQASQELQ

SGDLMPWNLVRIGLLR [K9gvpep7] showed an IC50 in assay [1] of 635 nM. In assay [1], SGCRLPWNLQRIGLPC (not fully specified (bridges); cysteine pairing not given here) [K9gvpep4] yielded an IC50 of 318 nM.

On to Ac-TVFTSWEEYLDWVGSGCRLPWNLQRIGLPC-NH2 (disulfide 17-30 (inferred)) [Compound 19], for which the IC50 came to 6.19 nM in assay [2] and 3.44 nM in assay [3].

Take Ac-TVFTSWEEYLDWVGSGDLMPWNLVRIGLLR-NH2 [Compound 20]: the half-maximal inhibitory concentration (IC50) was determined as 14.5 nM in assay [2] and 2.69 nM in assay [3].
